Source: US20070014736A1, “Methods of delivering corticotroph-derived glycoprotein hormone” (priority 2005, published 2007)

Experiments:
TSHR = assay: Binding of 125I-CGH and 125I-TSH to BHK cells expressing the TSHR; set-up: species or system murine or human; settings: increasing amounts of unlabeled protein
Experimental: BHK cells expressing murine or human TSHRs were cultured in Dulbecco's Modified Eagle's Medium [DMEM (high glucose)] containing 5% fetal bovine serum, 1% Glutamax, 1% sodium pyruvate, 250 nM methotrexate, and Geneticin ( 1/100). […] Plates of cells were placed on ice and washed twice with 1.0-2.0 ml of ice-cold PBS. […] Specific binding was determined in the presence (nonspecific binding) and absence (total binding) of unlabeled rhCGH (25.0 μg/ml) or TSH (10 μg/ml). Binding reactions were terminated by removing the binding medium and the cell monolayers were washed three times with 1.0-2.0 ml of ice-cold PBS containing 1.0 mg/ml BSA and twice with 1.0-2.0 ml of ice cold albumin-free PBS. Cells were solubilized in 1.0 ml of 1.0N NaOH for 10 min at room temperature and cell-associated radioactivity was determined in a gamma counter. The measured radioactivity was normalized to cell number that was determined on plates of cells cultured in parallel. Binding data were analyzed by non-linear regression using Prizm 3.0 (GraphPad Software, San Diego, Calif.).

[1] = tested on: undifferentiated 3T3 L1 fibroblasts; assay: CRE-luciferase reporter assay in undifferentiated 3T3 L1 fibroblasts; type: cell-based, murine
Description: Differentiated murine 3T3 L1 adipocytes and primary human adipocytes were used to study signal transduction of CGH. 3T3 L1 fibroblasts were differentiated into adipocytes and the cells were transduced with recombinant adenovirus containing a reporter construct, a firefly luciferase gene under the control of cAMP response element (CRE) enhancer sequences. This assay system detects cAMP-mediated gene induction downstream of activation of Gs-coupled G-protein coupled receptors (GPCR's). […] In a separate experiment, undifferentiated 3T3 L1 fibroblasts were transduced with the recombinant adenovirus. […] In another experiment, human primary adipocytes were also transduced with the recombinant adenovirus containing a reporter construct. Treatment of the human adipocytes with isoproterenol produced a 17-fold induction of luciferase expression.
Cells were cultured at 37° C. in an 8% CO2 humidified incubator. Cells were seeded to collagen-coated 96-well plates (Becton Dickinson, cat. #356407) at a density of 5,000 cells per well. […] Luciferase activity was measured on a microplate luminometer (PerkinElmer Life Sciences, Inc., model LB 96V2R) following automated injection of 40 μl of luciferase assay substrate into each well. […]

[2] = tested on: neutrophil infiltration in the ears; assay: Neutrophil (Gr-1) histomorphometry of ears in DTH experiment #1; type: in vivo, mice
Experimental: Ears from mice in DTH experiment #1 were analyzed by immunohistochemistry to assess which cell types were most affected by CGH treatment. Ears were fixed in Zinc/Tris buffer (2.3 mM calcium acetate/31.6 mM zinc acetate/36.7 mM zinc chloride in 0.1M Tris-HCL buffer, pH 7.4) for 24 hours at room temperature and stained with antibodies specific for CD4, CD8, CD11c, and Gr-1 (neutrophils). […] Ears were stained using a TechMate 500 autoimmunostainer (Biotech/Ventana) MIP protocol with some modifications. […] This step was followed, after a wash, by biotinylated rabbit anti-rat IgG secondary antibody (Dako, used at 10 ug/ml in PBS with 2% normal rabbit serum and 2% nonfat dry milk) for 45 min. The sections were then washed and treated with HP Block (1.5% H2O2 in 50% methanol) 3 times, 7 min each, followed by 25 min in avidin-biotin complex, 3 times of 4 min each in DAB (Diaminobenzidine), then with Methyl green for 10 min.
From this staining procedure, there was a clear reduction in the number of neutrophils infiltrating the ears of those mice treated with CGH or Dex, compared to the PBS-treated controls. Histomorphometry was performed to obtain the average pixel density of neutrophils per unit length (1 mm) present in the ear samples. Despite a fair amount of variability among each group, there was a significant reduction in neutrophil staining in the Dex and low dose CGH groups, as well as a nearly significant (p=0.0507) reduction in the high dose CGH group (see TABLE 5, p values).

[3] = tested on: Delayed Type Hypersensitivity (DTH) reaction; assay: Delayed Type Hypersensitivity (DTH), change in ear thickness; type: in vivo, mice
[4] = 0.2 mg/kg CGH i.p. at challenge (day 7)
[5] = 2 mg/kg CGH i.p. at challenge (day 7)
[6] = Expt 1, 0.2 mg/kg CGH i.p. at challenge (d7), 24 h
[7] = Expt 1, 2.0 mg/kg CGH i.p. at challenge (d7), 24 h
[8] = Expt 2, 0.2 mg/kg CGH i.p. at challenge (d7)
[9] = Expt 2, 2.0 mg/kg CGH i.p. at challenge (d7)
[10] = Expt 3, 0.2 mg/kg CGH i.p. at sensitization (d0-4)
[11] = Expt 3, 2.0 mg/kg CGH i.p. at sensitization (d0-4)

B1: CGH: heterodimeric protein hormone comprised of alpha subunit GPHA2 and beta subunit GPHB5, recombinantly produced in CHO cells (protein)
chain 1: QEAVIPGCHLHPFNVTVRSDRQGTCQGSHVAQACVGHCESSAFPSRYSVLVASGYRHNITSVSQCCTISGLKKVKVQLQCVGSRREELEIFTARACQCDMCRLSRY
chain 2: ASSGNLRTFVGCAVREFTFLAKKPGCRGLRITTDACWGRCETWEKPILEPPYIEAHHRVCTYNETKQVTVKLPNCAPGVDPFYTYPVAIRCDCGACSTATTECETI
reduction of the amount of 125I-CGH bound by unlabeled competitor (TSHR): reduced the amount of ^125I-CGH bound
reporter gene induction [1]: did not result in an increase in reporter gene induction
Pixel density: Neutrophils, left ear (PBS) [2, 4]: 544 +/− 1044
Pixel density: Neutrophils, right ear (OVA) [2, 4]: 5605 +/− 3725
Pixel density: Neutrophils, left ear (PBS) [2, 5]: 273 +/− 399
Pixel density: Neutrophils, right ear (OVA) [2, 5]: 5535 +/− 5331
Change in ear thickness, left ear (PBS) [3, 6]: 0.17 +/− 0.95 ×10^−3 inch
Change in ear thickness, right ear (OVA) [3, 6]: 3.48 +/− 0.79 ×10^−3 inch
Change in ear thickness, left ear (PBS) [3, 7]: 0.21 +/− 0.34 ×10^−3 inch
Change in ear thickness, right ear (OVA) [3, 7]: 2.48 +/− 1.05 ×10^−3 inch
Change in ear thickness, left ear (PBS) [3, 8]: 0.65 +/− 0.63 ×10^−3 inch
Change in ear thickness, right ear (OVA) [3, 8]: 4.41 +/− 0.95 ×10^−3 inch
Change in ear thickness, left ear (PBS) [3, 9]: 0.67 +/− 1.05 ×10^−3 inch
Change in ear thickness, right ear (OVA) [3, 9]: 3.92 +/− 1.00 ×10^−3 inch
Change in ear thickness, left ear (PBS) [3, 10]: 1.31 +/− 0.42 ×10^−3 inch
Change in ear thickness, right ear (OVA) [3, 10]: 4.06 +/− 0.73 ×10^−3 inch
Change in ear thickness, left ear (PBS) [3, 11]: 1.11 +/− 0.49 ×10^−3 inch
Change in ear thickness, right ear (OVA) [3, 11]: 4.57 +/− 1.58 ×10^−3 inch
